The supplement of paper PMC10567573
± gives the standard deviation.

Experiment: protein stability index of a GFP-peptide fusion (GPS, HEK-293T) (PSI 1-6); higher = more stable
[1] = treatment: DMSO, c terminus: a fixed tail appended
[2] = treatment: MLN4924 1 uM, 8 h, c terminus: a fixed tail appended
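Further: 24-mer peptide tiles fused after GFP, lentivirally expressed, FACS-sorted into six equal bins by GFP/DsRed ratio, decoded by Illumina sequencing, PSI is the read-weighted mean bin number.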

Row | Sequence | protein stability index [1] | protein stability index [2] | protein stability index (treatment: DMSO, c terminus: native) | protein stability index (treatment: MLN4924 1 uM, 8 h, c terminus: native)
1 | VPLGPLGETYCEEHGEKIYFFCEN [TRIM15] | 3.42 ± 0.15 | 3.54 ± 0.36 |  | 
2 | VPRYTGVAPQDQCKLTCQAQALGY [ADAMTS4] | 2.4 ± 0.47 | 2.65 ± 0.36 |  | 
3 | VPTPKSHLQLLGAVCMFLASKLKE [CCND2] | 2.11 ± 0.28 | 1.92 ± 0.39 |  | 
4 | VPYCERDYEKMFGTKCHGCDFKID [PDLIM7] | 3.2 ± 0.55 | 3.46 ± 0.22 |  | 
5 | VQELVLEDLQDGDVRMGGSFRGAF [NET1] | 3.38 ± 0.18 | 3.47 ± 0.12 |  | 
6 | VQETNKQPPQTVNPIGHLPESLTK [ATF4] | 4.79 ± 0.24 | 4.86 ± 0.2 |  | 
7 | VQGGSEAWGPGTLAAAPEGLEDAG [TEX19] | 5.12 ± 0.36 | 5.41 ± 0.2 |  | 
8 | VRDQGPSIPLTPGDTPIRKKEELL [FBF1] | 5.26 ± 0.21 | 5.33 ± 0.12 |  | 
9 | VRLMRQLLVINESIESIKWMIEEK [LURAP1L] | 2.75 ± 0.35 | 2.86 ± 0.45 |  | 
10 | VRRRYSDFEWLRSELERESKVVVP [SNX3] | 2.17 ± 0.12 | 2.33 ± 0.17 |  | 
11 | VRSGIVEYLSLVKGGQDVKKKVHL [PRIM1] | 2.43 ± 0.26 | 2.28 ± 0.44 |  | 
12 | VRVVFFPLFSNWWIQVTSLRIFVW [PHTF1] | 2.79 ± 0.69 | 2.87 ± 0.77 |  | 
13 | VSGDYYPIIYFNDYWNLQKDYYPI [CLPTM1] | 3.03 ± 0.64 | 3.1 ± 0.87 |  | 
14 | VSKVTGWCRDRLLGHREPSAHPVE [TMEM175] | 3.21 ± 0.22 | 3.33 ± 0.099 |  | 
15 | VSLRYSGATAASETLSGHGPLAQP [ADAMTS4] | 3.08 ± 0.15 | 3.21 ± 0.066 |  | 
16 | VSSDGTLKYMEVTLRPTDSQSHCY [PCDHGC5] | 2.8 ± 0.38 | 2.65 ± 0.23 |  | 
17 | VTDEEIESLMKDGDKNNDGRIDFD [TNNC2] | 5.52 ± 0.14 | 5.46 ± 0.3 |  | 
18 | VTKMFQKIQDLIDDKDALVFVLID [TRIP13] | 2.72 ± 0.63 | 2.47 ± 0.17 |  | 
19 | VVEEELFHQQGTPRASNRSCAIM [LMNB1] |  |  | 2.77 ± 0.3 | 3.16 ± 0.4
20 | VVLDRHGVYGLQRNLLVENIIDIY [TRIM55] | 2.44 ± 0.8 | 2.81 ± 0.099 |  | 
21 | WAAPRVGPLPPAPAMVRISKPKTF [YPEL3] | 3.15 ± 0.43 | 3.25 ± 0.18 |  | 
22 | WAISSWFRRGPAPQDQAGPGGAPR [CLPTM1] | 2.75 ± 0.47 | 3.21 ± 0.48 |  | 
23 | WALGCVLYELASLKRAFEAANLPA [NEK8] | 2.99 ± 0.3 | 2.9 ± 0.46 |  | 
24 | WELHSLRHCDDDGRTENGALAPKQ [ZNF24] | 4.91 ± 0.16 | 4.95 ± 0.19 |  | 
25 | WESSAGGSFTVRADHGEPIGRGTK [HSP90AB1] | 4.83 ± 0.28 | 4.79 ± 0.55 |  | 
26 | WILFPLLGCYAVYSLLYLEHKGWY [CLPTM1] | 2.9 ± 0.28 | 3.4 ± 0.072 |  | 
27 | WKPPDIKGKLMVCYETLPRGQCLL [SPAG8] | 2.27 ± 0.4 | 2.32 ± 0.41 |  | 

Row | Sequence | protein stability index [1] | protein stability index [2] | protein stability index (treatment: DMSO, c terminus: native) | protein stability index (treatment: MLN4924 1 uM, 8 h, c terminus: native)
28 | WSIPWKWLFGATAVALGGVALSVV [FKBP8] | 4.11 ± 0.43 | 3.98 ± 0.14 |  | 
29 | WTVWSGNRASLYSFPEPEAAQPMT [PRAME] | 2.45 ± 0.034 | 2.57 ± 0.25 |  | 
30 | WVCLAYFTSGFNAAALDYEADGST [SPACA3] | 2.9 ± 0.46 | 2.91 ± 0.25 |  | 
31 | WVGFDDVESFKTKVSYLKQKGLGG [CHIT1] | 2.36 ± 0.33 | 2.69 ± 0.36 |  | 
32 | WWTNWVIPAISAVAVALMYRLYMA [CYB5A] | 3.22 ± 0.15 | 3.29 ± 0.36 |  | 
33 | YFAIKQEVVTPDNMCMGRTSRGKL [ETS1] | 3.5 ± 0.23 | 3.49 ± 0.22 |  | 
34 | YFFCENDAEFLCVFCREGPTHQAH [TRIM15] | 2.26 ± 0.35 | 2.33 ± 0.54 |  | 
35 | YFFPVIFSKASSSLQLVFGIELME [MAGEA3] | 3.44 ± 0.27 | 2.96 ± 0.25 |  | 
36 | YFKCVQKDIQPYMRRMVATWMLEV [CCND2] | 2.71 ± 0.55 | 2.4 ± 0.45 |  | 
37 | YFRHADPTWQNSIRHNLSLNKCFI [FOXJ1] | 2.45 ± 0.41 | 2.23 ± 0.31 |  | 
38 | YFTWDEVAQRSGCEERWLVIDRKV [FADS1] | 2.65 ± 0.17 | 2.82 ± 0.27 |  | 
39 | YGEFYKSLTNDWEDHLAVKHFSVE [HSP90AB1] | 2.46 ± 0.31 | 2.87 ± 0.28 |  | 
40 | YKDFLWFFSKRFKSAAMLAVFAVS [SOAT1] | 2.25 ± 0.49 | 2.4 ± 0.53 |  | 
41 | YLDVDLTLTREQTERLSHQITSRV [RTN2] | 3.17 ± 0.18 | 3.23 ± 0.34 |  | 
42 | YLEGFDPFNQSTFNNVVEQNFKNR [DLC1] | 2.89 ± 0.26 | 3.15 ± 0.39 |  | 
43 | YLEKYYNLKNDGRQVEKRRNSGPV [MMP1] | 2.68 ± 0.57 | 3.27 ± 0.4 |  | 
44 | YLNSFLHQRIPQSVRILGSLVAIL [SLC29A1] | 2.15 ± 0.25 | 2.23 ± 0.21 |  | 
45 | YLSNARPDNWFCYPCIPNHELVWA [ZMYND11] | 2.67 ± 0.34 | 2.23 ± 0.49 |  | 
46 | YQETMVESTFMYLTLDLPTAPLYK [USP39] | 2.36 ± 0.52 | 2.28 ± 0.21 |  | 
47 | YQLELQCCIDWTHVTDPLIGCKKP [SMG5] | 2.38 ± 0.45 | 2.1 ± 0.3 |  | 
48 | YQRVLPLPIFTPAKMGATKEERED [TCAP] | 3.01 ± 0.69 | 3.62 ± 0.78 |  | 
49 | YRGAVYADNMEFEQCIKLWLHALH [FEM1B] | 2.19 ± 0.27 | 2.22 ± 0.48 |  | 
50 | YSFISLFIYMVLSLFIALITGAYD [MCOLN1] | 3.14 ± 0.48 | 3.22 ± 0.45 |  | 
51 | YSSSRDGYGGSRDSYSSSRSDLYS [RBMX] | 3.51 ± 0.14 | 3.79 ± 0.21 |  | 
52 | YTFVPWLLSFKRGSALEEKENKIL [TNFSF13B] | 2.51 ± 0.59 | 2.22 ± 0.3 |  | 
53 | YTTEFHELEKIGSGEFGSVFKCVK [WEE1] | 2.49 ± 0.85 | 3 ± 0.47 |  | 
54 | YYTTMQTLTKQDTMLKAMFSGRME [KCTD10] | 2.4 ± 0.16 | 2.4 ± 0.36 |  | 
